# Reference: article PMC10783091, “Higher affinities of fibers with cell receptors increase the infection capacity and virulence of human adenovirus type 7 and type 55 compared to type 3” (Microbiology Spectrum, 2023)
# T1: recombinant human desmoglein 2 (DSG2) (human, UniProt Q14126 50-609)
# T1 construct: desmoglein 2, human, recombinant; No catalogue number, limits or tags are printed for the bought protein; The source is named for the SPR; the ELISA says only 'human DSG2'; also called human DSG2; receptor DSG2; source: bought: Creative Biomart
# T1 sequence: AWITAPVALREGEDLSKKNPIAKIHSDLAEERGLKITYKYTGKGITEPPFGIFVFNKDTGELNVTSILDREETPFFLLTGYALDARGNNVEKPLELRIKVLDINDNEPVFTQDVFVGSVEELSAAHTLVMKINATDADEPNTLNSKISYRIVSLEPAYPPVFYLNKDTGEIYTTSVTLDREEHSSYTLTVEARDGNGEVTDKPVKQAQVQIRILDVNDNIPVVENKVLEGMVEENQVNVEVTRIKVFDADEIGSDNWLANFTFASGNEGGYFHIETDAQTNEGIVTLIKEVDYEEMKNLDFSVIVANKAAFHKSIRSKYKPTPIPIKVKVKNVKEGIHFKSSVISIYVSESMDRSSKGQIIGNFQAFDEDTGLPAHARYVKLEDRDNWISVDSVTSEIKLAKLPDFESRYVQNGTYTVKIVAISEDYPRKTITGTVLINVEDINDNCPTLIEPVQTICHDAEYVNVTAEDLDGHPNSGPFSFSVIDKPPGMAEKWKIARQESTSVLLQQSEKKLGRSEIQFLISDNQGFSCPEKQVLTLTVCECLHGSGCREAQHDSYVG
# B1: Recombinant fiber knob of HAdV-3 (domain or fragment)
# chain: KLGNGLTFDSSNSIALKNNTLWTGPKPEANCIIEYGKQNPDSKLTLILVKNGGIVNGYVTLMGASDYVNTLFKNKNVSINVELYFDATGHILPDSSSLKTDLELKYKQTADFSARGFMPSTTAYPFVLPNAGTHNENYIFGQCYYKASDGALFPLEVTVMLNKRLPDSRTSYVMTFLWSLNAGLAPETTQATLITSPFTFSYIREDD
# notes: fiber protein of human adenovirus type 3, fiber knob with the last shaft repeat; also called Ad3K; Ad3k; not shown: His tag, N-terminal, kept
# B2: Recombinant fiber knob of HAdV-5 (domain or fragment)
# chain: GAITVGNKNNDKLTLWTTPAPSPNCRLNAEKDAKLTLVLTKCGSQILATVSVLAVKGSLAPISGTVQSAHLIIRFDENGVLLNNSFLDPEYWNFRNGDLTEGTAYTNAVGFMPNLSAYPKSHGKTAKSNIVSQVYLNGDKTKPVTLTITLNGTQETGDTTPSAYSMSFSWDWSGHNYINEIFATSSYTFSYIAQE
# notes: fiber protein of human adenovirus type 5, fiber knob with the last shaft repeat; Negative control knob; also called Ad5K; Ad5k; not shown: His tag, N-terminal, kept
# Assays:
# [1] = molecular target: Recombinant fiber knob of HAdV-7 (human adenovirus type 7) (UniProt P15141); test: SDS-PAGE of unboiled (native) against boiled samples; purified knobs in loading buffer kept on ice (native) or heated at 98°C for 5 min (boiled); 12% SDS-PAGE
# [2] = molecular target: recombinant human desmoglein 2 (DSG2) (human) (UniProt Q14126); test: SPR; DSG2 amine-coupled on a CM5 chip (3,500-3,700 RU), knobs as analytes; 25°C; HBS-EP (10 mM HEPES, 150 mM NaCl, 3 mM EDTA, 0.05% Tween 20, pH 7.4); association 180 s, dissociation 540 s, 30 µL/min; Biacore 8K
# [3] = molecular target: Recombinant fiber knob of HAdV-55 (human adenovirus type 55); test: SDS-PAGE of unboiled (native) against boiled samples; purified knobs in loading buffer kept on ice (native) or heated at 98°C for 5 min (boiled); 12% SDS-PAGE
# [4] = molecular target: T1, recombinant human desmoglein 2 (DSG2); test: SPR; DSG2 amine-coupled on a CM5 chip (3,500-3,700 RU), knobs as analytes; 25°C; HBS-EP (10 mM HEPES, 150 mM NaCl, 3 mM EDTA, 0.05% Tween 20, pH 7.4); association 180 s, dissociation 540 s, 30 µL/min; Biacore 8K; settings: both partners purified
# [5] = molecular target: the molecule itself; test: SDS-PAGE of unboiled (native) against boiled samples; purified knobs in loading buffer kept on ice (native) or heated at 98°C for 5 min (boiled); 12% SDS-PAGE
molecule,measurement,setting,value
Recombinant fiber knob of HAdV-7 (from UniProt P15141 1-343) (domain or fragment),stoichiometry N,[1],3
same,Kd,[2],2.21 nM
Recombinant fiber knob of HAdV-55 (domain or fragment),stoichiometry N,[3],3
same,Kd,[2],1.25 nM
B1,Kd,[4],6.7 nM
B2,stoichiometry N,[5],3
